US20210371461

Test system: MePEG2-IEGR (TFA salt)

Row | Substance | luminescence signal (RLU) from substrate cleavage, 52 nM enzyme | Kcat (Vmax/[FXa]) | luminescence signal (RLU) from substrate cleavage, 80 nM enzyme
1 | thrombin | 52 nM thrombin yielded ˜30.000 RLU | – | –
2 | Factor Xa | – | Kcat=Vmax/[FXa]=1.05×10^14 s^-1 | A concentration of 80 nm FXa yielded a signal of 1.000.000 RLU
